This test concerns the target GST-fused full length CIN85 (human, UniProt Q96B97-1 1-665). Nature of the test: pull-down.

We go through two molecules from article PMC3495168 (Biology of the cell / under the auspices of the European …, 2011).

GST-fused full length CIN85, sequence (Q96B97 whole entry, the tested form may be a part): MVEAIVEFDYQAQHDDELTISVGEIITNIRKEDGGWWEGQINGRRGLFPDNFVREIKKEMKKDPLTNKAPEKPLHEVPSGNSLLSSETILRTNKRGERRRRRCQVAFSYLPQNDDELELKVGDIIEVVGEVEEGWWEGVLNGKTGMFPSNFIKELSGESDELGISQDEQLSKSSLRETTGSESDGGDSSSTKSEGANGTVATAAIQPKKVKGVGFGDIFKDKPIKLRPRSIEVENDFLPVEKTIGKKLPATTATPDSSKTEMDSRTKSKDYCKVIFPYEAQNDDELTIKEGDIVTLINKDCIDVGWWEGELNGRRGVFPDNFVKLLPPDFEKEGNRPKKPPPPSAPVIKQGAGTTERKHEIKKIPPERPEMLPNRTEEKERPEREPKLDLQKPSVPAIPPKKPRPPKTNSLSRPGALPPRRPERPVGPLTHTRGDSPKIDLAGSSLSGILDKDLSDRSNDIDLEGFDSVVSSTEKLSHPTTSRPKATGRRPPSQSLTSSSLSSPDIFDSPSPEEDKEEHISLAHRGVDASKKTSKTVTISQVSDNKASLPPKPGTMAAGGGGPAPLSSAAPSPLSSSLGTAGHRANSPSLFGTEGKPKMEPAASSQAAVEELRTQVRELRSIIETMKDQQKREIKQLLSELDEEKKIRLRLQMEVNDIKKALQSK

B1: Flag-ARAP1 (natural protein, human, UniProt Q96P48 1-1450, looked up)
chain: MAEAGDAALSVAEWLRALHLEQYTGLFEQHGLVWATECQGLSDTRLMDMGMLLPGHRRRILAGLLRAHTSPAPAPRPTPRPVPMKRHIFRSPPVPATPPEPLPTTTEDEGLPAAPPIPPRRSCLPPTCFTTPSTAAPDPVLPPLPAKRHLAELSVPPVPPRTGPPRLLVSLPTKEEESLLPSLSSPPQPQSEEPLSTLPQGPPQPPSPPPCPPEIPPKPVRLFPEFDDSDYDEVPEEGPGAPARVMTKKEEPPPSRVPRAVRVASLLSEGEELSGDDQGDEEEDDHAYEGVPNGGWHTSSLSLSLPSTIAAPHPMDGPPGGSTPVTPVIKAGWLDKNPPQGSYIYQKRWVRLDTDHLRYFDSNKDAYSKRFISVACISHVAAIGDQKFEVITNNRTFAFRAESDVERKEWMQALQQAMAEQRARARLSSAYLLGVPGSEQPDRAGSLELRGFKNKLYVAVVGDKVQLYKNLEEYHLGIGITFIDMSVGNVKEVDRRSFDLTTPYRIFSFSADSELEKEQWLEAMQGAIAEALSTSEVAERIWAAAPNRFCADCGAPQPDWASINLCVVICKRCAGEHRGLGAGVSKVRSLKMDRKVWTETLIELFLQLGNGAGNRFWAANVPPSEALQPSSSPSTRRCHLEAKYREGKYRRYHPLFGNQEELDKALCAAVTTTDLAETQALLGCGAGINCFSGDPEAPTPLALAEQAGQTLQMEFLRNNRTTEVPRLDSMKPLEKHYSVVLPTVSHSGFLYKTASAGKLLQDRRAREEFSRRWCVLGDGVLSYFENERAVTPNGEIRASEIVCLAVPPPDTHGFEHTFEVYTEGERLYLFGLESAEQAHEWVKCIAKAFVPPLAEDLLARDFERLGRLPYKAGLSLQRAQEGWFSLSGSELRAVFPEGPCEEPLQLRKLQELSIQGDSENQVLVLVERRRTLYIQGERRLDFMGWLGAIQKAAASMGDTLSEQQLGDSDIPVIVYRCVDYITQCGLTSEGIYRKCGQTSKTQRLLESLRQDARSVHLKEGEQHVDDVSSALKRFLRDLPDGLFTRAQRLTWLEASEIEDEEEKVSRYRELLVRLPPVNRATVKALISHLYCVQCFSDTNQMNVHNLAIVFGPTLFQTDGQDYKAGRVVEDLINHYVVVFSVDEEELRKQREEITAIVKMRVAGTASGTQHAGDFICTVYLEEKKAETEQHIKVPASMTAEELTLEILDRRNVGIREKDYWTCFEVNEREEAERPLHFAEKVLPILHGLGTDSHLVVKKHQAMEAMLLYLASRVGDTKHGMMKFREDRSLLGLGLPSGGFHDRYFILNSSCLRLYKEVRSQRPWSGAPETSHRPEKEWPIKSLKVYLGVKKKLRPPTCWGFTVVHETEKHEKQQWYLCCDTQMELREWFATFLFVQHDGLVWPSEPSRVSRAVPEVRLGSVSLIPLRGSENEMRRSVAAFTADPLSLLRNV
As a reminder, the EC50 is the concentration giving half of the maximal effect. With B1, the EC50 worked out at 5.6 ± 0.9 nM.

B2: Flag-[R86/90A]ARAP1 (natural protein, human, UniProt Q96P48 1-1450, looked up)
chain: MAEAGDAALSVAEWLRALHLEQYTGLFEQHGLVWATECQGLSDTRLMDMGMLLPGHRRRILAGLLRAHTSPAPAPRPTPRPVPMKAHIFASPPVPATPPEPLPTTTEDEGLPAAPPIPPRRSCLPPTCFTTPSTAAPDPVLPPLPAKRHLAELSVPPVPPRTGPPRLLVSLPTKEEESLLPSLSSPPQPQSEEPLSTLPQGPPQPPSPPPCPPEIPPKPVRLFPEFDDSDYDEVPEEGPGAPARVMTKKEEPPPSRVPRAVRVASLLSEGEELSGDDQGDEEEDDHAYEGVPNGGWHTSSLSLSLPSTIAAPHPMDGPPGGSTPVTPVIKAGWLDKNPPQGSYIYQKRWVRLDTDHLRYFDSNKDAYSKRFISVACISHVAAIGDQKFEVITNNRTFAFRAESDVERKEWMQALQQAMAEQRARARLSSAYLLGVPGSEQPDRAGSLELRGFKNKLYVAVVGDKVQLYKNLEEYHLGIGITFIDMSVGNVKEVDRRSFDLTTPYRIFSFSADSELEKEQWLEAMQGAIAEALSTSEVAERIWAAAPNRFCADCGAPQPDWASINLCVVICKRCAGEHRGLGAGVSKVRSLKMDRKVWTETLIELFLQLGNGAGNRFWAANVPPSEALQPSSSPSTRRCHLEAKYREGKYRRYHPLFGNQEELDKALCAAVTTTDLAETQALLGCGAGINCFSGDPEAPTPLALAEQAGQTLQMEFLRNNRTTEVPRLDSMKPLEKHYSVVLPTVSHSGFLYKTASAGKLLQDRRAREEFSRRWCVLGDGVLSYFENERAVTPNGEIRASEIVCLAVPPPDTHGFEHTFEVYTEGERLYLFGLESAEQAHEWVKCIAKAFVPPLAEDLLARDFERLGRLPYKAGLSLQRAQEGWFSLSGSELRAVFPEGPCEEPLQLRKLQELSIQGDSENQVLVLVERRRTLYIQGERRLDFMGWLGAIQKAAASMGDTLSEQQLGDSDIPVIVYRCVDYITQCGLTSEGIYRKCGQTSKTQRLLESLRQDARSVHLKEGEQHVDDVSSALKRFLRDLPDGLFTRAQRLTWLEASEIEDEEEKVSRYRELLVRLPPVNRATVKALISHLYCVQCFSDTNQMNVHNLAIVFGPTLFQTDGQDYKAGRVVEDLINHYVVVFSVDEEELRKQREEITAIVKMRVAGTASGTQHAGDFICTVYLEEKKAETEQHIKVPASMTAEELTLEILDRRNVGIREKDYWTCFEVNEREEAERPLHFAEKVLPILHGLGTDSHLVVKKHQAMEAMLLYLASRVGDTKHGMMKFREDRSLLGLGLPSGGFHDRYFILNSSCLRLYKEVRSQRPWSGAPETSHRPEKEWPIKSLKVYLGVKKKLRPPTCWGFTVVHETEKHEKQQWYLCCDTQMELREWFATFLFVQHDGLVWPSEPSRVSRAVPEVRLGSVSLIPLRGSENEMRRSVAAFTADPLSLLRNV
Turning to B2, the “fold more GST-CIN85 required for similar binding than for Flag-ARAP1” value was 8 fold.
